Test results taken from publication PMC3683068.
Where two headings read alike, the source gives them in different places.

Legend:
Experiment in all cases: two-hybrid; mammalian two-hybrid in HEK-293 cells; GAL4-ASK1 fragments in pBIND, VP16-Nef in pACT, pG5luc reporter; firefly luciferase/Renilla 48 hrs after transfection, fold over the pACT-pBIND negative control
[1] = molecular target: ASK1 (1-1051 aa), GAL4 fusion (UniProt Q99683)
[2] = molecular target: ASK1 (1-904 aa), GAL4 fusion (UniProt Q99683)
[3] = molecular target: ASK1 (1-1051 aa), GAL4 fusion (UniProt Q99683); remark: listed apart in the source
[4] = molecular target: ASK1 (319-1051 aa), GAL4 fusion (UniProt Q99683)
[5] = molecular target: ASK1 (1-345 aa), GAL4 fusion (UniProt Q99683)
[6] = molecular target: ASK1 (861-1051 aa), GAL4 fusion (UniProt Q99683)
[7] = molecular target: ASK1 (1-1051 aa), GAL4 fusion (UniProt Q99683); remark: listed apart in the source
[8] = molecular target: ASK1 (1-904 aa), GAL4 fusion (UniProt Q99683); remark: listed apart in the source
[9] = molecular target: ASK1 (1-1051 aa), GAL4 fusion (UniProt Q99683); remark: listed apart in the source

Substance | fold increase in luciferase/renilla over pACT-pBIND [1] | fold increase in luciferase/renilla over pACT-pBIND [2] | fold increase in luciferase/renilla over pACT-pBIND [3] | fold increase in luciferase/renilla over pACT-pBIND [4] | fold increase in luciferase/renilla over pACT-pBIND [5] | fold increase in luciferase/renilla over pACT-pBIND [6] | fold increase in luciferase/renilla over pACT-pBIND [7] | fold increase in luciferase/renilla over pACT-pBIND [8] | fold increase in luciferase/renilla over pACT-pBIND [9]
HIV-1 Nef (57-174 aa), VP16 fusion (domain or fragment) | 81.7 fold | – | – | – | – | – | – | – | –
HIV-1 Nef core domain (57-207 aa), VP16 fusion (domain or fragment) | 153 fold | 8.75 fold | 157 fold | 2.83 fold | 2.05 fold | 2.93 fold | 156 fold | 9.15 fold | 162 fold
